For this series, the system named is MS2 coat protein. Nature of the series: apparent KD of MS2 coat protein; designed switch direction (-1 OFF switch, 1 ON switch): -1; higher = weaker reporter binding. The essentials: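 Designed RNA switches sharing common flanks were transcribed on Illumina chips by stalled E. coli RNA polymerase. They were titrated with SNAP-549-labelled MS2 coat protein, from 0.7 or 1.5 nM doubling to 3 µM, in Tris-HCl pH 7.5 buffer with KCl, MgCl2, BSA, DTT, tRNA and Tween-20. Titrations ran without input, with 200 uM small-molecule ligand, or with an oligonucleotide input. The apparent KD of each design is the median over its clusters, after curve-fitting of normalised cluster fluorescence.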

The mark [1] stands for this setting: input ligand: microRNA oligo, concentration not stated.
The mark [2] stands for this setting: Eterna round: R95, input ligand: FMN 200 uM.
Where [3] appears, read: Eterna round: R95, input ligand: microRNA oligo, concentration not stated.
Where [4] appears, read: Eterna round: R95, input ligand: none.

Regarding “CCGGGCCCGGGAGGAUAUACAUGAGGAUCACCCAUGUGGGCCCGGGCCCGCGGGCCCGGGCCCAUGUAGAAGGCCCGGGCCCGG [-64.8, -64.2 kcal, A 15%] (Eterna round: R96, puzzle: Exclusion NG 2)”, the “apparent KD of MS2 coat protein” value worked out at 50 nM (input ligand: FMN 200 uM), 36.4 nM under setting [1] and 20.4 nM (input ligand: none).

Take “AGCUUUGCUGCUCGUCCCAACAUGAGGAUCACCCAUGUUCUUAUGAAACCAUCUAGCCUAGAUGGGUCUUGCCAAAG [Eternabot (Original) Solution 47] (Eterna round: R97, puzzle: Sensor, turn-off variant 1)”: the “apparent KD of MS2 coat protein” value (input ligand: FMN 200 uM) came to 27.1 nM and the “apparent KD of MS2 coat protein” value (input ligand: none) amounted to 29.1 nM.

In the case of “UCAACGCAAGGAUAUACUUGCGGUGAUGUUCGAAAUCUUCUACUUGAGGAUCACCCAAGUAGAAGGUGCGGUGA [jl-ex2.4.65 ViennaUCT mod] (Eterna round: R97, puzzle: Exclusion 2)”, the “apparent KD of MS2 coat protein” value runs as follows: (input ligand: FMN 200 uM) 12.8 nM; (input ligand: none) 12.9 nM.

With “CCGCCAUGAGGAUAUCCAUCUGGAUCAGACAAGAUCCUGAUGGAGAAGGGACAUGAGGAUCACCCAUGUUGCGG [Mat - Exclusion 4 - Eli Mod - D55] (Eterna round: R97, puzzle: Exclusion 4)”, the “apparent KD of MS2 coat protein” value turned out to be 60.4 nM (input ligand: FMN 200 uM) and 60 nM (input ligand: none).

With “UUUAAUUUUUUUUUUUUACAAGCUUUUUGCUCGUCUUAUACAUGAGGAUCACCCAUGUAAGUGGGAGAUAAAUUAUC [JMF 21] (puzzle: Sensor v3, turn-off variant 2)”, the “apparent KD of MS2 coat protein” value runs as follows: under setting [2], 76.6 nM; under setting [3], 53.3 nM; under setting [4], 90.4 nM.

Consider “GAUCAACAUGAGGAUCACCCAUGUCAGGAUAUGAUACUAUGUACUUCGGUACAUAGUAUCAGAAGGGACAGAUC [Ex1-3: 1] (puzzle: Exclusion 1)”, for which the “apparent KD of MS2 coat protein” value under setting [3] is 101 nM.

On to “ACAUGACUGCUAGGAUAUAGAUGACAUGAGGAUCACCCAUGUUGUCCCAUGUUGAUGGAAACCGACUAGAAGGAGCAGCAUAUG [Ex NG2 #11] (Eterna round: R96, puzzle: Exclusion NG 2)”, for which the “apparent KD of MS2 coat protein” value (input ligand: FMN 200 uM) turned out to be 47.4 nM, the “apparent KD of MS2 coat protein” value under setting [1] stood at 22.9 nM and the “apparent KD of MS2 coat protein” value (input ligand: none) is 35 nM.

As for “AUAAUGCAAGCAUGGUCCCACAUGAGGAUCACCCAUGUGUUCGUCUUAUAGGCUGCUGUGGCUUUUGCCUCGUUGGC [LRO Sensor-off var1-10 loose mod of D91 from Mat747] (Eterna round: R97, puzzle: Sensor, turn-off variant 1)”, the “apparent KD of MS2 coat protein” value is 74.3 nM (input ligand: FMN 200 uM) and 78.5 nM (input ligand: none).

As for “GGGUGACAUGAGGAUCACCCAUGUGAGGAUAUCUGGAUACUCUUUAUUUUAGAUAUCCAGAGAAGGCACACCCU [Ex1-3: 6Z] (puzzle: Exclusion 1)”, under setting [3], the “apparent KD of MS2 coat protein” value is 356 nM.

For the sequence “CCAGACGUUGUAGGAUAUCUGAAAGGAAGUGUAAGAGAAGGAUAGUGUCUGUAAAACAUGAGGAUCACCCAUGUGGGCGCAUCC [PowerStrip EXNG 1.30] (Eterna round: R96, puzzle: Exclusion NG 1)”, the “apparent KD of MS2 coat protein” value under setting [1] was 16.7 nM.

As for “UUUUGACAAGCGAGAUCCUACAUGAGGAUCACCCAUGUUGACCAUGGUUUCCAUGGUCUUUUUGCUCGUCUUGUGUG [jl TITIN mod 4] (Eterna round: R97, puzzle: Sensor, turn-off variant 1)”, the “apparent KD of MS2 coat protein” value (input ligand: FMN 200 uM) worked out at 21.5 nM and the “apparent KD of MS2 coat protein” value (input ligand: none) was determined as 21.8 nM.

Consider “GUGUAGUCAGGAUAUACAUAGGAAGAGAAGAGAAGAUAAGUACAUGAGGAUCACCCAUGUAGAAGGGACAGUGU [Excluse me!! 7 - Jieux - Exclusion 2] (puzzle: Exclusion 2)”, for which the “apparent KD of MS2 coat protein” value under setting [3] came out at 32.1 nM.

“UGAUCUAGCGGAGGAUAUACAUGAGGAUCACCCAUGUAAAUCGCUUUACCGUAGUGAAGCAUCAUGUAGAAGGCCGCUAGAUCU [MOD3 ENG2 3.62 by JL] (Eterna round: R96, puzzle: Exclusion NG 2)”: the “apparent KD of MS2 coat protein” value worked out at 59.3 nM (input ligand: FMN 200 uM), 480 nM under setting [1] and 592 nM (input ligand: none).

Consider “GGGCCCGGAGGAUAUACAUGAGGAUCACCCAUGUAGGGCUCGGGUAUUCUCGGGCUCUGUAGAAGGCCGGGCCC [-39.6, -36.7 kcal, A 19%, 5,0] (Eterna round: R97, puzzle: Exclusion 3)”, for which the “apparent KD of MS2 coat protein” value was determined as 17.5 nM (input ligand: FMN 200 uM) and 18.6 nM (input ligand: none).

In the case of “ACGAUGACAGAAAGAUGUCAAAAGACAUGAGGAUCACCCAUGUAGGAUAUGGCUACGAAAAGUAGUCAGAAGGACAUGUCAUCA [Omei Exc(NG) 3 Av1] (Eterna round: R96, puzzle: Exclusion NG 3)”, the “apparent KD of MS2 coat protein” value (input ligand: FMN 200 uM) is 16.2 nM, the “apparent KD of MS2 coat protein” value under setting [1] is 10.6 nM and the “apparent KD of MS2 coat protein” value (input ligand: none) stood at 13.8 nM.

As for “UGAUCUAGCGGAGGAUAUACAUGAGGAUCACCCAUGUAGAUAACUGCACCGUAGUGUAGUAUUGUGUAGAAGGCCGCUAGAUCU [JL ENG2 3.65] (Eterna round: R96, puzzle: Exclusion NG 2)”, the “apparent KD of MS2 coat protein” value is 26.8 nM (input ligand: FMN 200 uM), 11.4 nM under setting [1] and 14.2 nM (input ligand: none).

Regarding “GGAUCGAAUGUCAGGAUAUACCACUGGAUACAGUGGUAGAAGGGACAUGAGGAUCACCCAUGUGUUAUCGAUCC [Fiskers BMX 4 - 56] (puzzle: Brourd's mod of Exclusion 4)”, the “apparent KD of MS2 coat protein” value under setting [3] worked out at 36.5 nM.

On to “GGUGCUGGCGCGUCGGUGUUGGUGCAAUAAGCUUGUGAAACAUGAGGAUCACCCAUGUCCUCAUAAGCUCGUCUUAU [salish99_TOv2_r2_086] (puzzle: Sensor v3, turn-off variant 2)”, for which the “apparent KD of MS2 coat protein” value by setting is: under setting [2], 17.7 nM; under setting [3], 529 nM; under setting [4], 15.9 nM.

For the sequence “UUUAUGUCAGGAUAUGAGUAGUAGAACAAUAGUACUACUACUCAGAAGGGACAUGAGGAUCACCCAUGUUUCUC [Fiskers Ex 4 Super stable 44 mod 24] (puzzle: Exclusion 4)”, under setting [3], the “apparent KD of MS2 coat protein” value was found to be 22.6 nM.

Regarding “CUGGAGUCAGGAUAUGACGCAGUCCGCCCAAAUAGCGGAAAUCAGAAGGGACUUGAGGAUCACCCAAGUAAAAG [Qubilexe] (Eterna round: R97, puzzle: Exclusion 4)”, the “apparent KD of MS2 coat protein” value turned out to be 29.7 nM (input ligand: FMN 200 uM) and 21.8 nM (input ligand: none).

For the sequence “UUUUAGAGAGGAUAUACAUUUUUUUAUUUAUUUAUAAUAUUACAUGAGGAUCACCCAUGUAGAAGGCUCAUUUU [My Design] (puzzle: Exclusion 2)”, the “apparent KD of MS2 coat protein” value under setting [3] is 25.8 nM.

Regarding “AAAAGCUAAGGAUAUACAUGAGGAUCACCCAUGUACACCGGUACGGGUGCGAACUCCUGUAGAAGGUGGGAUAA [Atatlege] (puzzle: Exclusion 3)”, under setting [3], the “apparent KD of MS2 coat protein” value was determined as 121 nM.

Turning to “GCGAUAACCGAGGAUAUCGGUGAUAGAGAUAAUUGAGAAGGCGGUACAUGAGGAUCACCCAUGUAUACGUGGGC [Eternabot (L2) Solution 87] (Eterna round: R97, puzzle: Exclusion 6)”, the “apparent KD of MS2 coat protein” value is 16.7 nM (input ligand: FMN 200 uM) and 15.7 nM (input ligand: none).

On to “GUAUAUAGUGUGAGGAUAUGCUGGUCCUUGGAUCAGCAGAAGGCACAUGAGGAUCACCCAUGUAGUUUAUUUUG [Mat - Exclusion 4 - JL Mod - D7] (puzzle: Brourd's mod of Exclusion 4)”, for which the “apparent KD of MS2 coat protein” value under setting [3] worked out at 16.2 nM.

On to “GAAGUGCACAUGAGGAUCACCCAUGUGGGUGAGCCGUGCCUGAAGGAUAUGGCUCCCGAUGGAGACCAGAAGGUCAGUAAAUAA [Ededor] (Eterna round: R96, puzzle: Exclusion NG 3)”, for which the “apparent KD of MS2 coat protein” value by setting is: (input ligand: FMN 200 uM) 367 nM; under setting [1], 276 nM; (input ligand: none) 1030 nM.

For the sequence “UUUAAUUUUUUUUUUUUACAAGCUUUUUGCUCGUCUUAUACAUGAGGAUCACCCAUGUGAGUGGGAGAUAAAUUAUC [JMF 22] (puzzle: Sensor v3, turn-off variant 2)”, the “apparent KD of MS2 coat protein” value reads like this: under setting [2], 98.2 nM; under setting [3], 213 nM; under setting [4], 170 nM.

For “UAUAUGUCAGGAUAUUAGUAGUAAAUGAAUAAAAUUAUUACUGAGAAGGGACAUGAGGAUCACCCAUGUGCUUC [Mat - Exclusion 4 - Eli Mod - D25] (Eterna round: R97, puzzle: Exclusion 4)”, the “apparent KD of MS2 coat protein” value reads like this: (input ligand: FMN 200 uM) 224 nM; (input ligand: none) 27.9 nM.

Turning to “AACCUGAGGCAAAGCUUUAGGUGUACAUGAGGAUCACCCAUGUAGGAUAUGGUAGGCAAAGCUUACCAGAAGGACAUAAUGAUG [Mat - Exclusion NG 3 - Mod of JL - D47] (Eterna round: R96, puzzle: Exclusion NG 3)”, the “apparent KD of MS2 coat protein” value (input ligand: FMN 200 uM) came out at 100 nM, the “apparent KD of MS2 coat protein” value under setting [1] was 45.1 nM and the “apparent KD of MS2 coat protein” value (input ligand: none) amounted to 83.7 nM.

Consider “GCUGAAGGGUCGAUUACCAACAUGAGGAUCACCCAUGUUCGGAAUAAUUACAGGUUCGCUCGUCUCGAUGAAAGUCC [Eternabot (L1) Solution 19] (Eterna round: R97, puzzle: Sensor, turn-off variant 1)”, for which the “apparent KD of MS2 coat protein” value was 19.3 nM (input ligand: FMN 200 uM) and 21.7 nM (input ligand: none).

With “UAUGUCGACAAGGAUAUUUGCGCAAACGACCACAAAGAAGGUGUCACAUGAGGAUCACCCAUGUGGUGUGGGCC [Eternabot (L1) Solution 83] (Eterna round: R97, puzzle: Exclusion 6)”, the “apparent KD of MS2 coat protein” value came out at 202 nM (input ligand: FMN 200 uM) and 209 nM (input ligand: none).

As to “GAUGAGAGAGGAUAUACAUGAGGAUCACCCAUGUAAUUUUCGGACAUGGAAGCUGGAUGUAGAAGGCUCGCAUG [Leritete] (puzzle: Exclusion 3)”, the “apparent KD of MS2 coat protein” value under setting [3] was found to be 19.6 nM.

With “AGUGUGUGGCAGGAUAUGCGAUUUGUAAGUGUUGCAGAAGGGUCUACAUGAGGAUCACCCAUGUGUGCGGUUGA [Ex6 #13] (Eterna round: R97, puzzle: Exclusion 6)”, the “apparent KD of MS2 coat protein” value was found to be 658 nM (input ligand: FMN 200 uM) and 516 nM (input ligand: none).
